# Reference: PMC5801464, “Expanding Primary Metabolism Helps Generate the Metabolic Robustness To Facilitate Antibiotic Biosynthesis in Streptomyces” (mBio, 2018)
# Tests used:
# Pyk1 [1] = target: T1, Pyk1 (Streptomyces coelicolor, UniProt Q9S2I9); assay: pyruvate kinase activity assay, purified enzyme, Hill or Michaelis-Menten fit; format: biochemical; conditions: activator; PEP and ADP concentrations not told; read-out: No AMP / Pyk1
# T1 construct: E. coli codon-optimized gene; E. coli Origami B host
# T1 sequence (Q9S2I9 1-478): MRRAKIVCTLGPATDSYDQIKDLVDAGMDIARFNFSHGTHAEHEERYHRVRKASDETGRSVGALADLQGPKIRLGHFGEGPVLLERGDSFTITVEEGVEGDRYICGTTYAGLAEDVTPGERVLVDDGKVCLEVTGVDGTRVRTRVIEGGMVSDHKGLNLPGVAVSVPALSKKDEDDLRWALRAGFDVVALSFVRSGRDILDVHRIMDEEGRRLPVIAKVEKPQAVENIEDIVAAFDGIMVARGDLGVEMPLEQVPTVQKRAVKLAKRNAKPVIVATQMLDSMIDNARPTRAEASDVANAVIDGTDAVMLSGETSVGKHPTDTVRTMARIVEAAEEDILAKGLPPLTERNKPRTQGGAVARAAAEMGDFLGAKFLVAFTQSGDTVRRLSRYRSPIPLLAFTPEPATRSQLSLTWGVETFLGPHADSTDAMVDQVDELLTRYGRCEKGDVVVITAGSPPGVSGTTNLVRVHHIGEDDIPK
# Source text: pyruvate kinase activity assay, purified enzyme, Hill or Michaelis-Menten fit on Pyk1
# Pyk2 = target: T2, Pyk2 (Streptomyces coelicolor, UniProt Q9L299); assay: as above; format: biochemical; conditions: activator; PEP and ADP concentrations not told; read-out: No AMP / Pyk2
# T2 construct: native gene; E. coli Rosetta host
# T2 sequence (Q9L299 1-476): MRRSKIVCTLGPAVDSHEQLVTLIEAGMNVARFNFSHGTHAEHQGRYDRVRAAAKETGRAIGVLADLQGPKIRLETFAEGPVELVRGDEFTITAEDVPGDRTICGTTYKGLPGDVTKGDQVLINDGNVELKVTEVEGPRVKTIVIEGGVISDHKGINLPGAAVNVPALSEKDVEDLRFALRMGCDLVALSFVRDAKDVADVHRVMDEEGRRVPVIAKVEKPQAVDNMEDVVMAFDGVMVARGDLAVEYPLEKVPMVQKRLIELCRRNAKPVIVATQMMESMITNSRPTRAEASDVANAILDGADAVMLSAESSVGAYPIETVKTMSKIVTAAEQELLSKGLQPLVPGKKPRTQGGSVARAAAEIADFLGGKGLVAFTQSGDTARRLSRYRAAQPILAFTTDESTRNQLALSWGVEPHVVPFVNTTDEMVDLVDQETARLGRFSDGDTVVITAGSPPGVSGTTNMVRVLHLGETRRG
# Source text: pyruvate kinase activity assay, purified enzyme, Hill or Michaelis-Menten fit on Pyk2
# Pyk1 [2] = target: T1, Pyk1; assay: pyruvate kinase activity assay, purified enzyme; format: biochemical; conditions: activator
# [3] = substrate: C=C(OP(=O)(O)O)C(=O)O; assay: pyruvate kinase activity assay, purified enzyme, Hill fit; format: biochemical, Streptomyces coelicolor; conditions: 1.5 mM ADP; no AMP; cooperative, Hill coefficient 3.7
# Source text: pyruvate kinase activity assay, purified enzyme, Hill fit on Pyk1
# [4] = substrate: Nc1ncnc2c1ncn2[C@@H]1O[C@H](COP(=O)(O)OP(=O)(O)O)[C@@H](O)[C@H]1O; assay: pyruvate kinase activity assay, purified enzyme, Michaelis-Menten fit; format: biochemical, Streptomyces coelicolor; conditions: 5 mM PEP; no AMP; Michaelis-Menten-type kinetics
# Source text: pyruvate kinase activity assay, purified enzyme, Michaelis-Menten fit on Pyk1
# [5] = substrate: Nc1ncnc2c1ncn2[C@@H]1O[C@H](COP(=O)(O)OP(=O)(O)O)[C@@H](O)[C@H]1O; assay: as above; format: biochemical, Streptomyces coelicolor; conditions: 5 mM PEP; no AMP; Michaelis-Menten-type kinetics; remark: listed apart in the source
# Source text: pyruvate kinase activity assay, purified enzyme, Michaelis-Menten fit on Pyk2
# [6] = substrate: C=C(OP(=O)(O)O)C(=O)O; assay: pyruvate kinase activity assay, purified enzyme, Hill fit; format: biochemical, Streptomyces coelicolor; conditions: 1.5 mM ADP; no AMP; cooperative, Hill coefficient 1.5
# Source text: pyruvate kinase activity assay, purified enzyme, Hill fit on Pyk2
molecule,measurement,setting,value
Nc1ncnc2c1ncn2[C@@H]1O[C@H](COP(=O)(O)O)[C@@H](O)[C@H]1O [AMP],EC50,Pyk1 [1],0.01 mM
same,EC50,Pyk2,3.8 mM
O=P(O)(O)OC[C@H]1OC(O)[C@H](O)[C@@H]1O (stereo partly shown) [ribose-5-phosphate],"pyruvate kinase activity assay, purified enzyme",Pyk1 [2],Pyk1 was also shown to be highly stimulated by ribose-5-phosphate
"Pyk1 (Streptomyces coelicolor A3(2)) (protein, E. coli codon-optimized gene; E. coli Origami B host) MRRAKIVCTLGPATDSYDQIKDLVDAGMDIARFNFSHGTHAEHEERYHRVRKASDETGRSVGALADLQGPKIRLGHFGEGPVLLERGDSFTITVEEGVEGDRYICGTTYAGLAEDVTPGERVLVDDGKVCLEVTGVDGTRVRTRVIEGGMVSDHKGLNLPGVAVSVPALSKKDEDDLRWALRAGFDVVALSFVRSGRDILDVHRIMDEEGRRLPVIAKVEKPQAVENIEDIVAAFDGIMVARGDLGVEMPLEQVPTVQKRAVKLAKRNAKPVIVATQMLDSMIDNARPTRAEASDVANAVIDGTDAVMLSGETSVGKHPTDTVRTMARIVEAAEEDILAKGLPPLTERNKPRTQGGAVARAAAEMGDFLGAKFLVAFTQSGDTVRRLSRYRSPIPLLAFTPEPATRSQLSLTWGVETFLGPHADSTDAMVDQVDELLTRYGRCEKGDVVVITAGSPPGVSGTTNLVRVHHIGEDDIPK",K0.5,[3],3.5 mM
same,Vmax,[3],14.1 µmol/min/mg
same,kcat,[3],350 s⁻¹
same,kcat/Km,[3],100000 M⁻¹ s⁻¹
same,K0.5,[4],0.6 mM
same,kcat/Km,[4],1.59e+06 M⁻¹ s⁻¹
"Pyk2 (Streptomyces coelicolor A3(2)) (protein, native gene; E. coli Rosetta host) MRRSKIVCTLGPAVDSHEQLVTLIEAGMNVARFNFSHGTHAEHQGRYDRVRAAAKETGRAIGVLADLQGPKIRLETFAEGPVELVRGDEFTITAEDVPGDRTICGTTYKGLPGDVTKGDQVLINDGNVELKVTEVEGPRVKTIVIEGGVISDHKGINLPGAAVNVPALSEKDVEDLRFALRMGCDLVALSFVRDAKDVADVHRVMDEEGRRVPVIAKVEKPQAVDNMEDVVMAFDGVMVARGDLAVEYPLEKVPMVQKRLIELCRRNAKPVIVATQMMESMITNSRPTRAEASDVANAILDGADAVMLSAESSVGAYPIETVKTMSKIVTAAEQELLSKGLQPLVPGKKPRTQGGSVARAAAEIADFLGGKGLVAFTQSGDTARRLSRYRAAQPILAFTTDESTRNQLALSWGVEPHVVPFVNTTDEMVDLVDQETARLGRFSDGDTVVITAGSPPGVSGTTNMVRVLHLGETRRG",K0.5,[5],0.3 mM
same,kcat/Km,[5],145000 M⁻¹ s⁻¹
same,K0.5,[6],1.3 mM
same,kcat/Km,[6],14000 M⁻¹ s⁻¹
